Assays:
[1] = Biotransformation of coniferyl alcohol to vanillin catalysed by IECO (5 mM); type: biochemical; conditions: 5 mM 2a; for Consumption of 2a / Conversion of 2a to 3a (%) / Conversion of 2a to 5a (%) / Reaction composition at 24 hours (%) 2a / Reaction composition at 24 hours (%) 3a / Reaction composition at 24 hours (%) 5a: pH 9.0
Procedure: 180 mg of coniferyl alcohol were weighted and dissolved in 10 mL ethanol and stored at −20° C. (stock 100 mM). The reaction mixtures (0.5 mL) were set up in 1.5 mL glass vials as follows: […] (50 mM, pH 9.0) together with sodium ascorbate (1 mM), FeSO4 (1 mM) and bovine liver catalase (Sigma C40, 0-10 mg/mL). The reaction was initiated by the addition of coniferyl alcohol stock (0.025 mL, final concentration 5 mM), then it was incubated for 24 hours at 30° C. and 120 rpm (rotary shaker). Note that the reaction contained 5% v/v ethanol deriving from the substrate stock. To improve the oxygenation, the vials were placed horizontally. At certain time points, reaction samples were taken and quenched with methanol (2 vol. equivalents). The mixture was centrifuged for 5-10 mins at 20238 g. Then supernatant was finally transferred in a HPLC vial for analysis.

[2] = Spectrophotometric enzymatic assay: cleaving activity, production of vanillin from coniferyl alcohol at 349 nm; type: biochemical; conditions: freeze-dried cell free extract incl. buffer salts; vanillin from coniferyl alcohol
Procedure: Stock solution 200× of coniferyl alcohol (90 mg) was prepared in ethanol (5 mL) and stored at −20° C. From this, a new stock solution 20× of coniferyl alcohol (10 mM) was freshly prepared by 1:10 dilution in Glycine-NaOH (50 mM, pH 9.0). A cuvette containing 0.750 mL Glycine-NaOH (50 mM, pH 9.0) and 0.05 mL of the substrate 20× stock was pre-warmed at 25° C. for 1.5 mins. Then, the reaction was initiated by the addition of 0.2 mL of the enzyme sample. The cleaving […] activity was measured spectrophotometrically following the production of vanillin at 349 nm (ε349=26.7 mM^−1cm^−1 experimentally determined). One unit of activity (U) is defined as the amount of enzyme required to produce 1 μmol of vanillin per min. Agilent Cary 60 UV-Vis Spectrophotometer was used for all the measurements.
Searching for alternative novel alkene cleavage oxygenases (COs) catalysing the formation of vanillin from coniferyl alcohol was performed. A set of 27 sequences and 10 COs from different branches of the phylogenetic tree were selected, named CO-02-11. Two additional enzymes were included, which are located in different clusters of the phylogenetic tree: Lignostillbene dioxygenase from Pseudomonas brassicaceraum (PbLSD, PDB: 5V2D) and aromatic dioxygenase (Ado, CO-01) from Thermothelomyces thermophilus (GenBank ID: XP_003665585). The proteins were recombinantly expressed in E. coli BL21(DE3), following the same protocol developed for IECO. […] Putative COs were screened by spectrophotometric assay, monitoring the formation of 3a upon 2a cleavage. From a set of twelve COs, four positive hits, namely CO-01, CO-03, CO-06 and CO-07 were found. Positive variants were tested in the one pot cascade and compared them with IECO In agreement with the spectrophotometric screening, all four COs converted eugenol 1a to vanillin 3a (Table 8). The first step of the cascade is efficiently performed by EUGO, and the substrate is completely consumed. […] Overall, 70±3% conversion of 1a to vanillin 3a was achieved.

[3] = IECO CFE Fresh 1 mg/mL, 24 h, non-optimised
[4] = IECO CFE Fresh 2 mg/mL, 24 h, non-optimised
[5] = IECO CFE Stored at −20° 2 mg/mL, 24 h, non-optimised
[6] = IECO CFE Stored at −20° C. 3 mg/mL, 24 h, non-optimised
[7] = IECO fresh CFE 1 mg/mL, catalase 0 mg/mL
[8] = IECO fresh CFE 1 mg/mL, catalase 2 mg/mL
[9] = IECO fresh CFE 1 mg/mL, catalase 10 mg/mL
[10] = IECO fresh CFE 2 mg/mL, catalase 0 mg/mL
[11] = IECO fresh CFE 2 mg/mL, catalase 2 mg/mL
[12] = IECO fresh CFE 2 mg/mL, catalase 10 mg/mL
[13] = IECO fresh CFE 4 mg/mL, catalase 0 mg/mL
[14] = IECO fresh CFE 4 mg/mL, catalase 2 mg/mL
[15] = IECO fresh CFE 4 mg/mL, catalase 10 mg/mL

B1: IECO: isoeugenol cleavage oxygenase from Pseudomonas nitroreducens (GenBank: ACP17973), SEQ ID NO: 24 (protein, listed as Pseudomonas nitroreducens)
chain: MARLNRNDPQLVGTLLPTRIEADLFDLEVDGEIPKSINGTFYRNTPEPQVTPQKFHTFIDGDGMASAFHFEDGHVDFISRWVKTARFTAERLARKSLFGMYRNPYTDDTSVKGLDRTVANTSIISHHGKVLAVKEDGLPYELDPRTLETRGRFDYDGQVTSQTHTAHPKYDPETGDLLFFGSAAKGEATPDMAYYIVDKHGKVTHETWFEQPYGAFMHDFAITRNWSIFPIMPATNSLSRLKAKQPIYMWEPELGSYIGVLPRRGQGSQIRWLKAPALWVFHVVNAWEVGTKIYIDLMESEILPFPFPNSQNQPFAPEKAVPRLTRWEIDLDSSSDEIKRTRLHDFFAEMPIMDFRFALQCNRYGFMGVDDPRKPLAHQQAEKIFAYNSLGIWDNHRGDYDLWYSGEASAAQEPAFVPRSPTAAEGDGYLLTVVGRLDENRSDLVILDTQDIQSGPVATIKLPFRLRAALHGCWVPRP
vanillin afforded ([1]; IECO 4 mg CFE/mL in the presence of catalase, 24 h): 3.6 ± 0.6 mM | Consumption of 2a [1, 3]: 24% | Conversion of 2a to 3a (%) [1, 3]: 9% | Consumption of 2a [1, 4]: 45% | Conversion of 2a to 3a (%) [1, 4]: 17% | Consumption of 2a [1, 5]: 12% | Conversion of 2a to 3a (%) [1, 5]: 4% | Conversion of 2a to 5a (%) [1, 5]: 1% | Consumption of 2a [1, 6]: 18% | Conversion of 2a to 3a (%) [1, 6]: 5% | Conversion of 2a to 5a (%) [1, 6]: 13% | Reaction composition at 24 hours (%) 2a [1, 7]: 46 ± 3% | Reaction composition at 24 hours (%) 3a [1, 7]: 51 ± 3% | Reaction composition at 24 hours (%) 5a [1, 7]: 3 ± 1% | Conversion of 2a to 3a (%) ([1]; IECO fresh CFE 1 mg/mL, catalase 0 mg/mL, 24 h): 38 ± 4% | Reaction composition at 24 hours (%) 2a [1, 8]: 41 ± 6% | Reaction composition at 24 hours (%) 3a [1, 8]: 58 ± 6% | Reaction composition at 24 hours (%) 5a [1, 8]: 1 ± 0.1% | Conversion of 2a to 3a (%) ([1]; IECO fresh CFE 1 mg/mL, catalase 2 mg/mL, 24 h): 44 ± 5% | Reaction composition at 24 hours (%) 2a [1, 9]: 41 ± 3% | Reaction composition at 24 hours (%) 3a [1, 9]: 58 ± 1% | Reaction composition at 24 hours (%) 5a [1, 9]: 1 ± 0.1% | Conversion of 2a to 3a (%) ([1]; IECO fresh CFE 1 mg/mL, catalase 10 mg/mL, 24 h): 45 ± 3% | Reaction composition at 24 hours (%) 2a [1, 10]: 25 ± 4% | Reaction composition at 24 hours (%) 3a [1, 10]: 71 ± 4% | Reaction composition at 24 hours (%) 5a [1, 10]: 5 ± 1% | Conversion of 2a to 3a (%) ([1]; IECO fresh CFE 2 mg/mL, catalase 0 mg/mL, 24 h): 53 ± 3% | Reaction composition at 24 hours (%) 2a [1, 11]: 27 ± 3% | Reaction composition at 24 hours (%) 3a [1, 11]: 72 ± 3% | Reaction composition at 24 hours (%) 5a [1, 11]: 1 ± 0.3% | Conversion of 2a to 3a (%) ([1]; IECO fresh CFE 2 mg/mL, catalase 2 mg/mL, 24 h): 58 ± 3% | Reaction composition at 24 hours (%) 2a [1, 12]: 22 ± 4% | Reaction composition at 24 hours (%) 3a [1, 12]: 77 ± 4% | Reaction composition at 24 hours (%) 5a [1, 12]: 1 ± 0.1% | Conversion of 2a to 3a (%) ([1]; IECO fresh CFE 2 mg/mL, catalase 10 mg/mL, 24 h): 59±3% | Reaction composition at 24 hours (%) 2a [1, 13]: 9.1 ± 3% | Reaction composition at 24 hours (%) 3a [1, 13]: 82 ± 5% | Reaction composition at 24 hours (%) 5a [1, 13]: 9 ± 4% | Conversion of 2a to 3a (%) ([1]; IECO fresh CFE 4 mg/mL, catalase 0 mg/mL, 24 h): 56 ± 10% | Reaction composition at 24 hours (%) 2a [1, 14]: 11 ± 3% | Reaction composition at 24 hours (%) 3a [1, 14]: 84 ± 5% | Reaction composition at 24 hours (%) 5a [1, 14]: 5 ± 4% | Conversion of 2a to 3a (%) ([1]; IECO fresh CFE 4 mg/mL, catalase 2 mg/mL, 24 h): 62 ± 10% | Reaction composition at 24 hours (%) 2a [1, 15]: 13 ± 1% | Reaction composition at 24 hours (%) 3a [1, 15]: 86 ± 13% | Reaction composition at 24 hours (%) 5a [1, 15]: 1 ± 0.1% | Specific Activity (mU/mg of FD-CFE) [2]: 2.8 mU/mg

From patent US20260176659A1, “IMPROVED METHOD FOR THE PRODUCTION OF NATURAL VANILLIN” (BASE SE, priority 2022, published 2026)
